For 3 molecules, EC50 results are on record in patent US20230416362A1 (published 2023).

Common to all, as to test: ELISA
For one experiment, the target named is cyno TIGIT IgV domain.
In experiment [1] the target is T1, recombinant human TIGIT IgV domain (UniProt Q495A1 22-141).
T1 chain: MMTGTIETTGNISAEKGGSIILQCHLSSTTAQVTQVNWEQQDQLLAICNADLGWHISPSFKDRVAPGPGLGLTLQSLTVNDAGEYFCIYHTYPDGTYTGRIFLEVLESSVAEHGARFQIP

Experiment [2] has as its target T2, recombinant mouse TIGIT IgV domain (UniProt P86176 29-145).
T2 chain: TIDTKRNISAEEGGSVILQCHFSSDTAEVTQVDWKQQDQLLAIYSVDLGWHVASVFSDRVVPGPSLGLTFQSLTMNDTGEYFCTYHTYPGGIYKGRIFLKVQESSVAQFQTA

cyno TIGIT IgV domain, sequence (Q495A1 other isoform, or with tags, fused parts or gaps): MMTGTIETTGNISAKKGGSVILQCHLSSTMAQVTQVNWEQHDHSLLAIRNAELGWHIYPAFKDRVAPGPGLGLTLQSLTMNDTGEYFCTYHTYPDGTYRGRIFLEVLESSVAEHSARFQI

B1: 7D4 (antibody, V domains shown)
VH: QVQLKHSGAELVRPGTSVKMSCKASGYTFTNYWIGWAKQRPGHGLEWIGDIYPGSSFTNSNEKFKGKATLTADKSSSTAYMQFSSLTSEDSAIYYCAKLGRGYWYFDVWGTGTSVTVSA
VL: DIVLTQSPAIMSASLGEEITLTCSASSSVSYIHWYQQKSGTSPKLLIYTTSNLASGVPSRFSGSGSGTFYSLTISSVEAEDAADYYCHQWSRYPTFGGGTKLEIK
In the case of B1, the EC50 in the experiment with cyno TIGIT IgV domain was determined as 21.3 nM; in experiment [1], 0.13 nM.

B2: 2C9 (antibody, V domains shown)
VH: DIQLKQSGAELVRPGASVKLSCKASGYTFTDSYINWVKQRPGQGLEWIARFYPGSGNTYYNEKFKGKATLTAEKSSSTAYMQLSSLTSEDSAVYFCAREAWLLFYGMDYWGQGTTVTVSS
VL: DIVLTQSPAIMSASPGEKVTISCSANSSVSYMYWYQQKPGSSPKPWIYRTSNLASGVPARFSGSGSGTSYSLTISSMEAEDAATYYCQQYHSYPLTFGAGTKLELK
Regarding B2, the results for the EC50 (with cyno TIGIT IgV domain; in experiment [1]; in experiment [2]) were 69.9 nM, 0.23 nM and 138 nM, respectively.

B3: 3A9 (antibody, V domains shown)
VH: QVQLQQPGAELVRPGSSVKLSCKASGYTFTSYWMHWVKQRPIQGLEWIGNIDPSDSATHYNQKFKDKATLTVDKSSSTAYMHLSSLTSEDSAVYYCARTGIDYGSSYFDYWGQGTILTVSS
VL: DIVLTQSPASLAVSLGQRATISCRASQSVSTSSYSYIHWYQQKPGQPPKLLIKYASNLESGVPARFSGSGSGTDFTLNIHPVEEEDTATYYCQHNWEIPRTFGGGTKLEIK
Turning to B3, the results for the EC50 (with cyno TIGIT IgV domain; in experiment [1]; in experiment [2]) were 4.46 nM, 0.38 nM and 172 nM, respectively.
